Molecular target: thrombin (UniProt P00734;P00734 328-363;364-622)
Assay: BLI

For GGTTGGTGTGGTTGG (structured_DNA) [HD1], the Kd was 32 ± 4 nM.

From paper doi:10.1101/2025.01.09.632085
